Experimental data taken from paper PMC9464592 (Nature, 2022).

Legend:
Test in all cases: cryo-EM structure
[1] = target: T1, N-terminally Flag-tagged MIOS (human, UniProt Q9NXC5 1-875)
T1 sequence: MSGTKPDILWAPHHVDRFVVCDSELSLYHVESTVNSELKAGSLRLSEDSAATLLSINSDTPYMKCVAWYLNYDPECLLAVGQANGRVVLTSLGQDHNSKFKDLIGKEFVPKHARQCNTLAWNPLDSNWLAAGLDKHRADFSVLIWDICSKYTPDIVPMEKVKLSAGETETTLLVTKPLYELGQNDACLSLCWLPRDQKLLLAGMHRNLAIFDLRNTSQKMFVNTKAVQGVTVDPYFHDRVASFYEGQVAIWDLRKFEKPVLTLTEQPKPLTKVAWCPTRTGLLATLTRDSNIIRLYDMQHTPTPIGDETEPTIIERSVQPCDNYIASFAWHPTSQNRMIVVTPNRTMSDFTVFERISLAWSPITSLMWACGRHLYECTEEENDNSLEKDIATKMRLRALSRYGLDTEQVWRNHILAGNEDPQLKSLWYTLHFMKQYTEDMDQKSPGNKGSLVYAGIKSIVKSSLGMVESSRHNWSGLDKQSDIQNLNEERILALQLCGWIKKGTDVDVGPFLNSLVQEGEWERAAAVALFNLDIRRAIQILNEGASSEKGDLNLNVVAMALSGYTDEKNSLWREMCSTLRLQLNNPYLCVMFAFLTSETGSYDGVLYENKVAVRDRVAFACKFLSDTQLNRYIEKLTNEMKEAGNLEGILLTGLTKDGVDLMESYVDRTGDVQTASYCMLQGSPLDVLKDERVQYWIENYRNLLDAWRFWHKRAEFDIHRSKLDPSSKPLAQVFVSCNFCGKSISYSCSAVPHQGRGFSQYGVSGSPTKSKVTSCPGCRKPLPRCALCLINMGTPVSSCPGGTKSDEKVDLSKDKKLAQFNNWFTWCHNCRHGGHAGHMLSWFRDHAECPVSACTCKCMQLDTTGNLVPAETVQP

[2] = target: T2, tag-free WDR59 (human, UniProt Q6PJI9 1-974)
T2 sequence: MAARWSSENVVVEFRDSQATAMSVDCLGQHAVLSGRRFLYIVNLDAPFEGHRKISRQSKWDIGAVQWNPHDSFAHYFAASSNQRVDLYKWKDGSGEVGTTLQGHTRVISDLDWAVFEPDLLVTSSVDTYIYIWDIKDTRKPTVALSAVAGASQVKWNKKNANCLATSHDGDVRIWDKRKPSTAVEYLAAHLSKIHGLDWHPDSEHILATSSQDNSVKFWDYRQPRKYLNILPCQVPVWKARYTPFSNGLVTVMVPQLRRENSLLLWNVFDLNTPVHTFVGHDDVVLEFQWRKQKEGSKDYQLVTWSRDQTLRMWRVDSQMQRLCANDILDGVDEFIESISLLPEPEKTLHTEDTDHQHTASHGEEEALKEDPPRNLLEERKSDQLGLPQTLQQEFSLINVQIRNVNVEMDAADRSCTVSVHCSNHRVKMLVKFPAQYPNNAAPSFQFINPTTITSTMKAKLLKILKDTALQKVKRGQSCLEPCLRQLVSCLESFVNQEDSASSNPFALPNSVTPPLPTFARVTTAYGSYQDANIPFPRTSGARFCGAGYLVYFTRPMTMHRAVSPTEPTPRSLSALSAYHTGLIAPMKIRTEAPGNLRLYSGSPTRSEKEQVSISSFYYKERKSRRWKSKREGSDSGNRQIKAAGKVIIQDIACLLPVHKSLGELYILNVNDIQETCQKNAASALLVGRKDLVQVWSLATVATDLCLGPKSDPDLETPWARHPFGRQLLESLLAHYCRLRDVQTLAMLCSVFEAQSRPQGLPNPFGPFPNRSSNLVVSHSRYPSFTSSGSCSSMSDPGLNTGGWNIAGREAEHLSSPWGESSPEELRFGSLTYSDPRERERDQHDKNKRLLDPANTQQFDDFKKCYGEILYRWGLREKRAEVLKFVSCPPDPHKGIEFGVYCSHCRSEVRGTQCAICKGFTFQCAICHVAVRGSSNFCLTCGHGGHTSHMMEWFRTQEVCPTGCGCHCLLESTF

[3] = target: T3, tag-free WDR24 (human, UniProt Q96S15 1-790)
T3 sequence: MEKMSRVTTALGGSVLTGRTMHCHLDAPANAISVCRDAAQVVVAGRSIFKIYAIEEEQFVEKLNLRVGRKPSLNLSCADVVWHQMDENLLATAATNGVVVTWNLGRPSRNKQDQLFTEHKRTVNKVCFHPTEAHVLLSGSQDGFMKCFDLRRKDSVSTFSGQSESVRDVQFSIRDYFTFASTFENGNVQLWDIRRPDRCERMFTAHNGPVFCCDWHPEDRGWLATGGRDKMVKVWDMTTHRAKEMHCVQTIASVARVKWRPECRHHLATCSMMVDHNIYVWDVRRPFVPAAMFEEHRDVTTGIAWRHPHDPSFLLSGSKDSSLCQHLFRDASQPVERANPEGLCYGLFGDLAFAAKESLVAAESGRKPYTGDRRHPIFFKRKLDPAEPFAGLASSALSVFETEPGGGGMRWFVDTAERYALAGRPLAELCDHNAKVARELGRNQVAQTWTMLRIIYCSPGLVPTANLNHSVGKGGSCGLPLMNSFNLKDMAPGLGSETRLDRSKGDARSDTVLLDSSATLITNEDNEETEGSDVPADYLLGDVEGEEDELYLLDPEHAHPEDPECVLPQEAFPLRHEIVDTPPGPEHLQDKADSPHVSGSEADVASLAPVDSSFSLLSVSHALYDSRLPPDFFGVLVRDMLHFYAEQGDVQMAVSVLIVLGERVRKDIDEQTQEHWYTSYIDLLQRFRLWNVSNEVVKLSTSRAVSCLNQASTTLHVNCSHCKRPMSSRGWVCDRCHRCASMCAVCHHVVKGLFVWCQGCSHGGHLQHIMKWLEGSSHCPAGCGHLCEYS

Measured: binding result

B1: tag-free SEC13 (natural protein, human)
chain: MVSVINTVDTSHEDMIHDAQMDYYGTRLATCSSDRSVKIFDVRNGGQILIADLRGHEGPVWQVAWAHPMYGNILASCSYDRKVIIWREENGTWEKSHEHAGHDSSVNSVCWAPHDYGLILACGSSDGAISLLTYTGEGQWEVKKINNAHTIGCNAVSWAPAVVPGSLIDHPSGQKPNYIKRFASGGCDNLIKLWKEEEDGQWKEEQKLEAHSDWVRDVAWAPSIGLPTSTIASCSQDGRVFIWTCDDASSNTWSPKLLHKFNDVVWHVSWSITANILAVSGGDNKVTLWKESVDGQWVCISDVNKGQGSVSASVTEGQQNEQ
binds: all assays above
